Laboratory results published in US20240349752A1 (CLARA FOODS, published 2024).

Biological target: bovine trypsin (bovine, UniProt P00760 24-246)
Assay: cell-based or functional assay

bovine trypsin, sequence (P00760 24-246): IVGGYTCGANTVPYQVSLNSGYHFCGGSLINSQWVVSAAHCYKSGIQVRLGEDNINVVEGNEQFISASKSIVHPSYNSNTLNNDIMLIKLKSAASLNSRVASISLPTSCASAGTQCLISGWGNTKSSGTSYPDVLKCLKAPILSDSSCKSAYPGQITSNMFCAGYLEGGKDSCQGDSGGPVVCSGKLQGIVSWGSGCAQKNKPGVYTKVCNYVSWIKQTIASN

Trypsin inhibition activity: 13700 TIU/g
B1: Native chicken Ovomucoid (other)
chain: AEVDCSRFPNATDKEGKDVLVCNKDLRPICGTDGVTYTNDCLLCAYSIEFGTNISKEHDGECKETVPMNCSSYANTTSEDGKVMVLCNRAFNPVCGTDGVTYDNECLLCAHKVEQGASVDKRHDGGCRKELAAVSVDCSEYPKPDCTAEDRPLCGSDNKTYGNKCNFCNAVVESNGTLTLSHFGKC
modifications: complex branched N-linked glycosylation (includes mannose)
